Results from patent publication US20250270341A1 (Alector, published 2025).
Values belong to the binder of their own block, whether it stands above or below them.

Key:
Test in all cases: ELISA, hybridoma supernatant
huCD98hc ECD Avi-His = target: T1, huCD98hc ECD Avi-His (human, UniProt P08195 105-529)
T1 construct: biotinylated on the Avi tag where captured on streptavidin; also called Human CD98-AVI-His; Human CD98hc-AVI-His
T1 sequence: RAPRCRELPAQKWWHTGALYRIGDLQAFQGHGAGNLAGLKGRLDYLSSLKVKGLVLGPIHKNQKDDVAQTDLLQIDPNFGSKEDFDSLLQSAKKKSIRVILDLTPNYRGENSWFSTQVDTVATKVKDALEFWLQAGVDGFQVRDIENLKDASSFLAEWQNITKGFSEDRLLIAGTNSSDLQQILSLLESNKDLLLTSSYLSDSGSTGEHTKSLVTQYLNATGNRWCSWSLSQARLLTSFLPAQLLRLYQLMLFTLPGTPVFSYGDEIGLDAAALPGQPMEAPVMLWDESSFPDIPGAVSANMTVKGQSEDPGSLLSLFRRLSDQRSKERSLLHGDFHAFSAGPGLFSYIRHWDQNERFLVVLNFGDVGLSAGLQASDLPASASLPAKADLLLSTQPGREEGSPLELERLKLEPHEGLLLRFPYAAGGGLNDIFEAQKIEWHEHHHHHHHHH
Experimental: (§1) Briefly, 96-well polystyrene plates were coated with 5 μg/ml of streptavidin (Thermo Fisher, Cat #PI21125) in coating buffer (0.05M carbonate buffer, pH 9.6, Sigma, Cat #C3041) overnight at 4° C. Coated plates were then blocked with ELISA diluent (PBS+0.5% BSA+0.05% Tween20) for one hour. Blocking buffer was removed and human, cyno, or mouse Avi-His-tagged CD98hc and Avi-His-tagged human TfR polypeptides were added at 1 μg/ml in ELISA diluent and captured for 1 hour at room temperature. After washing three times with 300 μl of PBST (PBS+0.05% Tween20, Thermo 28352), the hybridoma cell culture supernatants or 1 μg/ml of commercially available purified mouse anti-human CD98hc monoclonal antibody (Sigma Aldrich, Cat #SAB 4700503) and rat anti-mouse CD98hc antibody (Bio-Rad Laboratories, Hercules, CA, Cat #MCA2684) were added (50 μl/well) to each well. After 30 minutes of incubation at room temperature, the plates were washed three times with 300 μl of PBST. […] After a final set of washes (3×300 μl in PBST), 50 μl/well of BioFx TMB substrate (Surmodics, Eden Praire, MN, Cat #TMBW-1000-01) was added to the wells. The reaction was then quenched after 5-10 mins with 50 μl/well of 2N sulfuric acid. The plates were read for absorbance at 450 nm on a SpectraMax M5 (Molecular Devices, Sunnyvale, CA) using SoftMax Pro software.

[1] = target: T2, Human TfR-AVI-His (control) (human, UniProt P02786 89-760)
T2 construct: control protein; also called Avi-His-tagged human TfR; human transferrin receptor
Experimental: as §1

Cyno CD98hc ECD Avi-His = target: T3, Cyno CD98hc ECD Avi-His (cynomolgus macaque, UniProt P08195 105-529 (human entry))
T3 construct: biotinylated on the Avi tag where captured on streptavidin; also called Cyno CD98-AVI-His; Cyno CD98hc-AVI-His
T3 chain: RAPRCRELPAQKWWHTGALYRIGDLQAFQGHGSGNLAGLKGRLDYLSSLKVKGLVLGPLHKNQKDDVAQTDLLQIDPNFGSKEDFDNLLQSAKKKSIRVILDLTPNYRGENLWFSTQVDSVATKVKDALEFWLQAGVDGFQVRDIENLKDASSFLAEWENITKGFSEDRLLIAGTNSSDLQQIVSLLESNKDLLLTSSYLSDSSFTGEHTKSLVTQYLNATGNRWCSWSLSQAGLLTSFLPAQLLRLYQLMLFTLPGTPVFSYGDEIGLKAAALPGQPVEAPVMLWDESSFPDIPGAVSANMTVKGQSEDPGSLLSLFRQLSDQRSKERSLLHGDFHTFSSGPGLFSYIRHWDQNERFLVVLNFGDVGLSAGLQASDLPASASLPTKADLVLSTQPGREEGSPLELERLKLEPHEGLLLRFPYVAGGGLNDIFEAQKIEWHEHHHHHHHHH
Experimental: as §1

muCD98hc ECD Avi-His = target: T4, muCD98hc ECD Avi-His (mouse, UniProt P10852 100-526)
T4 construct: biotinylated on the Avi tag where captured on streptavidin; also called Mouse CD98-AVI-His; Mouse CD98hc-AVI-His
T4 sequence: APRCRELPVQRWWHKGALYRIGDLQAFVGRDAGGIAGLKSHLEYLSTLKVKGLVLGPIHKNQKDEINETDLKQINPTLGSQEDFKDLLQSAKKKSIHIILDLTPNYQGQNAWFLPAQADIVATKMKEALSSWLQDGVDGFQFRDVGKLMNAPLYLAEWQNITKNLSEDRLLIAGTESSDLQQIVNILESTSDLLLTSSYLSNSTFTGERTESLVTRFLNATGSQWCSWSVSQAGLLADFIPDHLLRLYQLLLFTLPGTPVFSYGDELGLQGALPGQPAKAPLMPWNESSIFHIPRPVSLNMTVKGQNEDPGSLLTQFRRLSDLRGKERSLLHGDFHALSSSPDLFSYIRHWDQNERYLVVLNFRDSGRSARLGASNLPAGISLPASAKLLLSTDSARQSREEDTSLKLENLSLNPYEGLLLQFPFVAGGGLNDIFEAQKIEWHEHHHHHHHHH
Experimental: as §1

T2 sequence (P02786 89-760 limits assumed): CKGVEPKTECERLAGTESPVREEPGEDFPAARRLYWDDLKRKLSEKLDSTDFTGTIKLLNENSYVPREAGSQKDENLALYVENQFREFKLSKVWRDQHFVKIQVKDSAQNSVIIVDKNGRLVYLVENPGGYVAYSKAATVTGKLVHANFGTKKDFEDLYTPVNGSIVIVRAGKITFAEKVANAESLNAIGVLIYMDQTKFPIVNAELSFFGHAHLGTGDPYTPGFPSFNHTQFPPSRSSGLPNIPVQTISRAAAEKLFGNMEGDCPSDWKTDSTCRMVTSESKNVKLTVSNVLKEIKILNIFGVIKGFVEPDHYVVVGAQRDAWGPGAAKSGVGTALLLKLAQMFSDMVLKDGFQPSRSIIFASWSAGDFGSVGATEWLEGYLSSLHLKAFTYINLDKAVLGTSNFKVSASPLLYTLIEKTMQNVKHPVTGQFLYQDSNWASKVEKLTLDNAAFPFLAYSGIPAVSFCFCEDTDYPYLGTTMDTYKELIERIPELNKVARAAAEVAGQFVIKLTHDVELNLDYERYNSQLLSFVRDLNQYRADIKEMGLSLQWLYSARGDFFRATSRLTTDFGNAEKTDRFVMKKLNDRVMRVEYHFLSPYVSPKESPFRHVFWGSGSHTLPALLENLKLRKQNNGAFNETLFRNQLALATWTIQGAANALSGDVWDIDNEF

OD450 (huCD98hc ECD Avi-His): 1
OD450 [1]: 0.0588
OD450 (Cyno CD98hc ECD Avi-His): 1.77
OD450 (muCD98hc ECD Avi-His): 0.0625
B1: CD98HC.03.010 (antibody, V domains shown)
VH: EVQLQQSGTELVKPGASVKLSCTASGLDIKDTYLHWVKQRPEQGLEWIGKIDPANGNTKYNPKFQGKATITADTSSNTAYLQLSSLTSEDTAVHYCTTPYYSGSSYGDYWGQGTTLTVSS
VL: QIVLTQSPAIMSASPGEKVTLTCSASSSVSSSYLYWYQQKPGSSPKLWIYSTSNLASGVPARFSGSGSGTSYSLTISSMEAEDAASYFCHQWSRYPLTFGAGTKLELK
notes: hybridoma IgG

OD450 (huCD98hc ECD Avi-His): 1.7
OD450 [1]: 0.0639
OD450 (Cyno CD98hc ECD Avi-His): 1.76
OD450 (muCD98hc ECD Avi-His): 0.073
B2: CD98HC.04.064 (antibody, V domains shown)
VH: QVQLQQPGAELVRPGASVKLSCKASGYTFTSYWMNWVRQRPGQGLEWIGLIDPSDSETHYNQMFKDRATLTVDKSSSTAYMQLSSLTSADPAVYYCARASYGKGYFDYWGQGTTLTVSS
VL: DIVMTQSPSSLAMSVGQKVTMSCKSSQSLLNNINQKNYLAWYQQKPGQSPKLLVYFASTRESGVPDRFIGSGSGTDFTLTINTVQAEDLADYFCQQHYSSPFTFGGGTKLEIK
notes: hybridoma IgG

OD450 (huCD98hc ECD Avi-His): 1.38
OD450 [1]: 0.0719
OD450 (Cyno CD98hc ECD Avi-His): 1.88
OD450 (muCD98hc ECD Avi-His): 0.0817
B3: CD98HC.04.046 (antibody, V domains shown)
VH: QIQLVQSGPVLKKPGETVKISCKASGYTFTNFGMNWVKQAPGKGLKWMGWIDTYTREPTYVDDFKGRFAFSLETSVTTAYLQINDLKNEDSATYFCARGESHWYFDVWGAGTTVTVSS
VL: QIVLTQSPAIMSASLGERVTMTCIVSSSVSSSYLYWYQQKPGSSPKLWIYSTSILASGVPGRFSGSGSGTSYSLTISSMEAEDAATYYCHQYHRSPPTFGGGTKLEIK
notes: hybridoma IgG

OD450 (huCD98hc ECD Avi-His): 1.34
OD450 [1]: 0.0976
OD450 (Cyno CD98hc ECD Avi-His): 1.73
OD450 (muCD98hc ECD Avi-His): 0.121
B4: CD98HC.04.058 (antibody, V domains shown)
VH: QVQLQQSGAELVRPGVSVKISCKASGYTFTDHTMHWVKQSHARSLEWIGVISTYFGDASYNPKFKGKATMTVDKSSNTAYMELARLTSEDSAIYYCARVGGRLRLGYYFDYWGQGTTLTVSS
VL: NIMMTQSPSSLAVSAGEKVTMNCKSSQTVLYSSNQKNYLAWYQQKPGQSPKLLIYWASTRESGVPDRFTGSGSGTDFTLTISSVQVEDLAVYYCHQYLSSYTFGGGTKLEIK
notes: hybridoma IgG

OD450 (huCD98hc ECD Avi-His): 1.61
OD450 [1]: 0.0561
OD450 (Cyno CD98hc ECD Avi-His): 1.63
OD450 (muCD98hc ECD Avi-His): 0.0607
B5: CD98HC.04.062 (antibody, V domains shown)
VH: EVQLVESGGDLVKPGGSLKLSCTASRFAFSTYDMSWVRQTPEKRLEWVAYISSGGGSTYFPDTVKGRFTISRDNAKNTLYLQMSSLKSEDTAMYYCARQDGHYPWFPYWGQGTLVTVSA
VL: DIVMSQSPSSLAVSVGEKVTMSCKSSQSLLYSGNQKTYLAWYQQKPGQSPKPLIYWASTRESGIPDRFTGSGSGTDFTLTISSVKAEDLAVYYCQQYYSYPPTFGAGTKLELK
notes: hybridoma IgG

OD450 (huCD98hc ECD Avi-His): 1.49
OD450 [1]: 0.0905
OD450 (Cyno CD98hc ECD Avi-His): 1.4
OD450 (muCD98hc ECD Avi-His): 0.0938
B6: CD98HC.03.004 (antibody, V domains shown)
VH: DVQLQESGPGLVKPSQSLSLTCTVTGYSITNNYAWNWIRRFPGNKLEWMAYISYSGYTSYNPSLKSRISITRDTSKNQFFLQLNSVTTEDTATYYCTGYFYYYGGGSFDYWGQGTTLTVSS
VL: QAVVTQESALTTSPGETVTLTCRSSTGAVTTSNFANWVQEKPDHLFTGLIRGSNNRAPGVPARFSGSLIGDKAALTITGARTEDEAIYFCALWYSDHWVFGGGTKLTVL
notes: hybridoma IgG

OD450 (huCD98hc ECD Avi-His): 1.66
OD450 [1]: 0.0629
OD450 (Cyno CD98hc ECD Avi-His): 1.91
OD450 (muCD98hc ECD Avi-His): 0.0738
B7: CD98HC.04.063 (antibody, V domains shown)
VH: EVKLEESGGGLVQPGGSMILSCVASGFTFSNSWMNWVRQSPEKGLEWVAEIRLRSNNYATHYAESVKGRFTISRDDSKSTVYLQMNNLRAEDTGIYYCSRGDPGAYWGQGTLVTVSA
VL: DIQMTQSSSYLSVSLGNRVTITCKASDHIKNWLAWFQQKPGNAPRLLISGATILETGVPSRFSGSGSGKDYTLSITSLQTEDVATYYCQQYWSTPYTFGGGTKLEIK
notes: hybridoma IgG
